# US20260242419A1, “A CYCLIC PEPTIDE FOR TRAPPING INTERLEUKIN-1 BETA” (Merck Sharp & Dohme LLC, priority 2023, published 2026)
# Starred links: 1 amine or outer side, 2 acyl side, 3 side chain; linkers in the order of their positions; H or OH if unused. Non-standard residues stand in square brackets, D forms with d. No end group written: not given here. dProc3CH24Pal = (2R,3S)-3-(4-pyridylmethyl)pyrrolidine-2-carboxylic acid, O=C([C@H]1[C@@H](Cc2ccncc2)CCN1[*:1])[*:2]; dPyrimA = (2R)-2-amino-3-pyrimidin-5-yl-propanoic acid, O=C([C@@H](Cc1cncnc1)N[*:1])[*:2]; alTOMe = (2S,3S)-2-amino-3-methoxy-butanoic acid, CO[C@@H](C)[C@H](N[*:1])C(=O)[*:2]; ThrOMe = (2S,3R)-2-amino-3-methoxy-butanoic acid, CO[C@H](C)[C@H](N[*:1])C(=O)[*:2]; dPro(4R-(4-pyridylmethyl)) = O=C(O)[C@H]1C[C@@H](Cc2ccncc2)CN1; Trp(βS-Me,4-F) = C[C@@H](c1c[nH]c2cccc(F)c12)[C@H](N)C(=O)O; Bip(4'-COOH) = N[C@@H](Cc1ccc(-c2ccc(C(=O)O)cc2)cc1)C(=O)O; Trp(4-Cl) = N[C@@H](Cc1c[nH]c2cccc(Cl)c12)C(=O)O; Ala(pyrimidin-5-yl) = N[C@@H](Cc1cncnc1)C(=O)O; Phe(4-COOH) = N[C@@H](Cc1ccc(C(=O)O)cc1)C(=O)O; Trp(4-F) = N[C@@H](Cc1c[nH]c2cccc(F)c12)C(=O)O; Bip = N[C@@H](Cc1ccc(-c2ccccc2)cc1)C(=O)O; Nva(5,5,5-F3) = N[C@@H](CCC(F)(F)F)C(=O)O; Pro(cis-4-F) = O=C(O)[C@@H]1C[C@H](F)CN1; dPhe(4-F) = N[C@H](Cc1ccc(F)cc1)C(=O)O; d(αMeF) = C[C@@](N)(Cc1ccccc1)C(=O)O; Dap(CONH2) = NC(=O)NC[C@H](N)C(=O)O; hTyr = N[C@@H](CCc1ccc(O)cc1)C(=O)O; d(αMeD) = C[C@@](N)(CC(=O)O)C(=O)O; 4Pal = N[C@@H](Cc1ccncc1)C(=O)O; d3Pal = N[C@H](Cc1cccnc1)C(=O)O; aThr = C[C@H](O)[C@H](N)C(=O)O; dCha = N[C@H](CC1CCCCC1)C(=O)O; NMeDab = CN[C@@H](CCN)C(=O)O; dCba = N[C@H](CC1CCC1)C(=O)O; dOrn = NCCC[C@@H](N)C(=O)O; dDab = NCC[C@@H](N)C(=O)O; dDap = NC[C@@H](N)C(=O)O; Dab = NCC[C@H](N)C(=O)O; Nva = CCC[C@H](N)C(=O)O; Aib = CC(C)(N)C(=O)O
# Biological target: Recombinant human IL-1β (BioLegend 579404) (human, UniProt P01584 117-269)
# Experiment: cell-based or functional assay
row,MRC5 IC50,Binder
1,0.021 nM,"[Bip(4'-COOH)][4Pal][Phe(4-COOH)]G[Pro(cis-4-F)][Trp(βS-Me,4-F)][Aib]SW[d(αMeD)][dPhe(4-F)]Q[Dab]G[dProc3CH24Pal] (lactam (positions not given here); also: macrolactam, ring places not given here) [SEQ ID NO: 236]"
2,0.022 nM,"[Bip(4'-COOH)][4Pal][Phe(4-COOH)]G[Pro(cis-4-F)][Trp(βS-Me,4-F)][Aib]SW[d(αMeD)][Nva(5,5,5-F3)]Q[Dab]G[dProc3CH24Pal] (lactam (positions not given here); also: macrolactam, ring places not given here) [SEQ ID NO: 232]"
3,0.025 nM,"[Bip(4'-COOH)][4Pal][Phe(4-COOH)]G[Pro(cis-4-F)][Trp(βS-Me,4-F)][Aib]SW[d(αMeD)][dCha]Q[Dab]G[dProc3CH24Pal] (lactam (positions not given here); also: macrolactam, ring places not given here) [SEQ ID NO: 237]"
4,0.024 nM,"[Bip(4'-COOH)][4Pal][Phe(4-COOH)]G[Pro(cis-4-F)][Trp(βS-Me,4-F)][Aib]SW[Aib][dD]Q[Dab]G[dProc3CH24Pal] (lactam (positions not given here); also: macrolactam, ring places not given here) [SEQ ID NO: 234]"
5,0.025 nM,"cyclo([Bip(4'-COOH)][4Pal][Phe(4-COOH)]G[Pro(cis-4-F)][Trp(βS-Me,4-F)][Aib]SW[d(αMeD)][d3Pal]Q[Dab]G[dProc3CH24Pal]) (ring closure inferred) [SEQ ID NO: 240]"
6,0.024 nM,"[Bip(4'-COOH)][4Pal][Phe(4-COOH)]G[Pro(cis-4-F)][Trp(βS-Me,4-F)][Aib]SW[d(αMeD)][dL]Q[Dab]G[dProc3CH24Pal] (lactam (positions not given here); also: macrolactam, ring places not given here) [SEQ ID NO: 238]"
7,0.018 nM,"cyclo([Bip(4'-COOH)][4Pal][Phe(4-COOH)]G[Pro(cis-4-F)][Trp(βS-Me,4-F)][Aib]SW[Aib][Ala(pyrimidin-5-yl)]Q[NMeDab]G[dProc3CH24Pal]) (ring closure inferred) [SEQ ID NO: 241]"
8,0.018 nM,"[Bip(4'-COOH)][4Pal][Phe(4-COOH)]G[Pro(cis-4-F)][Trp(βS-Me,4-F)][Aib]SW[d(αMeD)][Ala(pyrimidin-5-yl)]Q[NMeDab]G[dProc3CH24Pal] (lactam (positions not given here); also: macrolactam, ring places not given here) [SEQ ID NO: 235]"
9,0.03 nM,"[Bip(4'-COOH)][4Pal][Phe(4-COOH)]G[Pro(cis-4-F)][Trp(βS-Me,4-F)][Aib]SW[Aib][dPyrimA]Q[Dab]G[dProc3CH24Pal] (lactam (positions not given here); also: macrolactam, ring places not given here) [SEQ ID NO: 233]"
10,0.02 nM,"[Bip(4'-COOH)][4Pal][Phe(4-COOH)]G[Pro(cis-4-F)][Trp(βS-Me,4-F)][Aib]SW[d(αMeD)][dCba]Q[Dab]G[dProc3CH24Pal] (lactam (positions not given here); also: macrolactam, ring places not given here) [SEQ ID NO: 239]"

# Biological target: Recombinant human IL-1β (BioLegend 579404) (human, UniProt P01584 117-269)
# Experiment: cell-based or functional assay
# Remark: another data set of the same source
row,Binder,MRC5 IC50
1,"cyclo([Bip][4Pal][Phe(4-COOH)]G[Pro(cis-4-F)][Trp(βS-Me,4-F)][Aib]SW[d(αMeD)][dDab]Q[Dab]G[dPro(4R-(4-pyridylmethyl))]) (ring closure inferred) [SEQ ID NO 248]",0.028 nM
2,"cyclo([Bip][4Pal][Phe(4-COOH)]G[Pro(cis-4-F)][Trp(βS-Me,4-F)][Aib]SW[d(αMeD)][dDab]Q[Dap(CONH2)]G[dPro(4R-(4-pyridylmethyl))]) (ring closure inferred) [SEQ ID NO 247]",0.03 nM
3,"cyclo([Bip(4'-COOH)][4Pal][Phe(4-COOH)]G[Pro(cis-4-F)][Trp(βS-Me,4-F)][Aib]SW[d(αMeD)][hTyr]Q[Dab]G[dPro(4R-(4-pyridylmethyl))]) (ring closure inferred) [SEQ ID NO 256]",0.012 nM
4,"cyclo([Bip][4Pal][Phe(4-COOH)]G[Pro(cis-4-F)][Trp(βS-Me,4-F)][Aib]SW[d(αMeD)][dK]Q[Dap(CONH2)]G[dPro(4R-(4-pyridylmethyl))]) (ring closure inferred) [SEQ ID NO 244]",0.03 nM
5,"cyclo([Bip(4'-COOH)][4Pal][Phe(4-COOH)]G[Pro(cis-4-F)][Trp(βS-Me,4-F)][Aib]S[Trp(4-F)][d(αMeD)][Ala(pyrimidin-5-yl)]Q[Dab]G[dPro(4R-(4-pyridylmethyl))]) (ring closure inferred) [SEQ ID NO 252]",0.013 nM
6,"cyclo([Bip(4'-COOH)][4Pal][Phe(4-COOH)]G[Pro(cis-4-F)][Trp(βS-Me,4-F)][Aib]SW[d(αMeD)][ThrOMe]Q[Dab]G[dPro(4R-(4-pyridylmethyl))]) (ring closure inferred) [SEQ ID NO 255]",0.011 nM
7,"cyclo([Bip(4'-COOH)][4Pal][Phe(4-COOH)]G[Pro(cis-4-F)][Trp(βS-Me,4-F)][Aib]SW[d(αMeD)][dF]Q[Dab]G[dPro(4R-(4-pyridylmethyl))]) (ring closure inferred) [SEQ ID NO 243]",0.022 nM
8,"cyclo([Bip(4'-COOH)][4Pal][Phe(4-COOH)]G[Pro(cis-4-F)][Trp(βS-Me,4-F)][Aib]S[Trp(4-Cl)][d(αMeD)][Ala(pyrimidin-5-yl)]Q[Dab]G[dPro(4R-(4-pyridylmethyl))]) (ring closure inferred) [SEQ ID NO 251]",0.013 nM
9,"cyclo([Bip][4Pal][Phe(4-COOH)]G[Pro(cis-4-F)][Trp(βS-Me,4-F)][Aib]SW[d(αMeD)][dDap]Q[Dap(CONH2)]G[dPro(4R-(4-pyridylmethyl))]) (ring closure inferred) [SEQ ID NO 246]",0.031 nM
10,"cyclo([Bip][4Pal][Phe(4-COOH)]G[Pro(cis-4-F)][Trp(βS-Me,4-F)][Aib]SW[d(αMeD)][dE]Q[Dab]G[dPro(4R-(4-pyridylmethyl))]) (ring closure inferred) [SEQ ID NO 249]",0.016 nM
11,"cyclo([Bip(4'-COOH)][4Pal][Phe(4-COOH)]G[Pro(cis-4-F)][Trp(βS-Me,4-F)][Aib]SW[d(αMeD)][dS]Q[Dab]G[dPro(4R-(4-pyridylmethyl))]) (ring closure inferred) [SEQ ID NO 242]",0.019 nM
12,"cyclo([Bip(4'-COOH)][4Pal][Phe(4-COOH)]G[Pro(cis-4-F)][Trp(βS-Me,4-F)][Aib]SW[d(αMeD)][alTOMe]Q[Dab]G[dPro(4R-(4-pyridylmethyl))]) (ring closure inferred) [SEQ ID NO 254]",0.013 nM
13,"cyclo([Bip][4Pal][Phe(4-COOH)]G[Pro(cis-4-F)][Trp(βS-Me,4-F)][Aib]SW[Aib][dE]Q[Dab]G[dPro(4R-(4-pyridylmethyl))]) (ring closure inferred) [SEQ ID NO 250]",0.027 nM
14,"cyclo([Bip][4Pal][Phe(4-COOH)]G[Pro(cis-4-F)][Trp(βS-Me,4-F)][Aib]SW[d(αMeD)][dOrn]Q[Dap(CONH2)]G[dPro(4R-(4-pyridylmethyl))]) (ring closure inferred) [SEQ ID NO 245]",0.027 nM
15,"cyclo([Bip(4'-COOH)][4Pal][Phe(4-COOH)]G[Pro(cis-4-F)][Trp(βS-Me,4-F)][Aib]SW[d(αMeD)][Nva]Q[Dab]G[dPro(4R-(4-pyridylmethyl))]) (ring closure inferred) [SEQ ID NO 253]",0.013 nM

# Next, values leading:
row,MRC5 IC50,Binder
1,0.014 nM,"cyclo([Bip(4'-COOH)][4Pal][Phe(4-COOH)]G[Pro(cis-4-F)][Trp(βS-Me,4-F)][Aib]SW[d(αMeF)]DQ[Dab]G[dPro(4R-(4-pyridylmethyl))]) (ring closure inferred) [SEQ ID NO 259]"
2,0.021 nM,"cyclo([Bip(4'-COOH)][4Pal][Phe(4-COOH)]G[Pro(cis-4-F)][Trp(βS-Me,4-F)][Aib]SW[d(αMeF)][aThr]Q[Dab]G[dPro(4R-(4-pyridylmethyl))]) (ring closure inferred) [SEQ ID NO 257]"
3,0.02 nM,"cyclo([Bip(4'-COOH)][4Pal][Phe(4-COOH)]G[Pro(cis-4-F)][Trp(βS-Me,4-F)][Aib]SW[d(αMeF)]EQ[Dab]G[dPro(4R-(4-pyridylmethyl))]) (ring closure inferred) [SEQ ID NO 258]"
